In the supplement of paper PMC10567573:

B1: TSN (parent)
chain: AFVVYLETETLVTREAVTEILGIE
B2: KCNA3 (parent)
chain: YQSGGRIRRPVNVPIDIFSEEIRF

Variants of: B1
Test: protein stability index of a GFP-peptide fusion (GPS, HEK-293T) (PSI 1-6); higher = more stable
Details: c terminus: a fixed tail appended
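Also: lentivirally expressed fusions sorted by FACS into six bins by GFP to DsRed ratio, PSI derived from sequencing read proportions per bin multiplied by bin number.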

Protein stability index, by site and new letter:
L6: G 1.77, D 2, H 1.37, R 1.24, F 3.12, C 2.38, Q 1.84, Y 2.2, E 2.25, P 1.85, A 1.34, V 4.67, N 2.69, I 3.08, S 1.83, T 2.05, K 2.03
V3: H 2.3, Y 2.86, D 2.37, E 1.9, N 2.37, Q 2.75, A 2.32, P 2.89, G 1.67, K 1.81, F 1.99, R 1.34, L 2.35, T 3.95, M 1.97, S 1.15
F2: K 1.78, M 2.88, N 2.45, I 2.72, R 1.72, A 1.97, G 1.88, Q 1.86, T 2.74, W 1.84, S 2.36, L 2.25, E 2.49, D 3.68, P 3.41, Y 2.83, V 1, H 1.48
A1: H 2.54, K 2.54, F 3.77, Q 2.11, G 3.71, T 2.55, L 3.38, M 2.61, N 3.19, I 3.49, E 3.39, D 1.74, P 2.44, R 4.12, S 2.71, C 2.64, W 2.42
Y5: R 2.97, S 1.77, P 2.87, G 2.5, V 3.44, N 2.13, D 2.68, H 1.59, F 1.99, E 2.73, C 2.94, I 4.04, Q 1.91, A 2, T 3.32, K 1.14, L 2.45
V4: Y 2.61, G 2.53, C 2.2, T 1.13, H 2.19, W 2.92, S 1.57, K 1.56, E 2.07, A 2.54, R 1.45, N 2.09, D 2.41, P 2.66, Q 1.36, L 2.21
E7: D 3.68, A 3.23, C 1.79, G 2.77

Variants of: B2
Test: as above
Details: c terminus: a fixed tail appended

Protein stability index: each site, then its substitutions
P14: H 2.02, T 1.81, A 1.81, Q 3.61, G 1.9, D 1.85, I 2.88, S 1.42, E 1.43, W 2.98, C 1.33, V 1.61, F 1.07, L 2.85, K 1.78, M 3.25
N12: R 1.28, P 2.11, A 1.8, F 1.35, W 2.21, C 2.62, L 1.4, V 1.41, H 3.14, Y 1.08, E 1.8, D 1.8, K 1.91, T 2.17, Q 2.34, S 2.63, M 2.26, I 1.93, G 1.83
R23: M 1.67, P 1.97, C 1.23, F 1.53, N 1.77, E 2.19, D 3, H 2.37, K 2.3, W 1.05, V 1.68, L 1.28, T 1.62, Q 1.72, A 2.29
F24: D 2.1, I 2.47, V 2.42, P 2.26, C 2.32, W 1.66, G 1.62, H 2.4, N 3.24, K 1.94, R 2.38, S 2.4, Q 2.31, L 2.37, A 2.53, M 2.52, T 2.52
V11: Y 2.18, P 1.83, T 1.98, S 1.74, Q 2.03, R 2.37
F18: N 3.17, S 2.8, L 2.63, C 2.36, I 1.49, Q 1.81, T 2.4, K 1.99, E 3.23, M 2.35, R 2.11, Y 2.2, A 2.68, V 2.41, G 2.49, H 2.29, D 2.3, P 2.55
S19: N 2.74, G 2.52, C 1.39, E 1.87, L 1.41, T 2.6, F 1.51, P 1.73, Y 2.4, I 1.85, H 1.49, D 2.43, Q 1.68, A 1.83, K 1.54, R 1.64
I17: Q 1.89, A 2.85, R 2.48, M 2.21, C 2.48, K 2.05, T 1.97, F 1.76, N 2.74, Y 2.79, S 2.33, V 2.48, G 2.19, E 3.04, W 1.23, H 1.91, L 1.86, D 2.34, P 3.32
I15: D 2.33, W 1.92, A 3.48, H 2.16, Q 2.56, C 2.13, R 2.41, N 2.36, P 2.03, S 2.69, G 2.4, K 2.19, F 1.48, L 1.83, Y 1.63, E 2.11, T 2.37, M 2.13
E20: R 1.61, A 2.06, H 2.04, N 2.52, P 2.11, Q 1.68, D 2.26, Y 2.34, M 1.96, S 1.82, G 1.37, C 2.19, K 2.29, T 1.53, F 2.93
E21: Y 2.56, N 2.33, A 2.27, F 1.62, R 2.38, Q 2.75, C 2.51, K 1.84, M 1.87, V 1.97, S 1.48, D 1.56, T 1.95, I 1.6, P 1.65, L 2.09, H 2
D16: M 1.73, A 3.22, T 2.51, I 2.51, P 2.34, C 1.41, W 1.87, N 2.01, Y 1.39, G 1.73, H 1.84, K 1.8, Q 2.61, R 1.64, S 2.42, F 1.33, V 1.19, L 1.88
I22: D 2.5, T 2.2, P 1.98, N 2.82, F 1.69, R 2.68, V 3.48, Y 1.8, M 2.29, L 2.06, S 2.29, G 1.68, K 2.31, A 1.34, Q 2.86, H 2.71
V13: D 2.14, I 2.43, P 1.86, C 1.78, F 1.86, N 2.13, R 2.01, H 2.19, L 1.95, Q 2.42, M 2.25, G 2.31, Y 1.69, T 1.82, K 2.36, S 2.11, E 2.14, A 1.88, W 2.01
